Experimental data as given in PMC12017343, “Extended repertoire of CXC chemokines acting as agonists and antagonists of the human and murine atypical chemokine receptor ACKR2” (Journal of Leukocyte Biology, 2025).

T1: mouse ACKR2 N-terminally fused with the NanoLuc (mouse, UniProt O08707 1-378)
T1 construct: atypical chemokine receptor 2 (ACKR2), mouse; also called mACKR2; NanoLuc-ACKR2; source: HEK293T, stably expressing (pIRES-puromycin vector), on cells; not shown: NanoLuc, N-terminal, kept
T1 sequence (looked up): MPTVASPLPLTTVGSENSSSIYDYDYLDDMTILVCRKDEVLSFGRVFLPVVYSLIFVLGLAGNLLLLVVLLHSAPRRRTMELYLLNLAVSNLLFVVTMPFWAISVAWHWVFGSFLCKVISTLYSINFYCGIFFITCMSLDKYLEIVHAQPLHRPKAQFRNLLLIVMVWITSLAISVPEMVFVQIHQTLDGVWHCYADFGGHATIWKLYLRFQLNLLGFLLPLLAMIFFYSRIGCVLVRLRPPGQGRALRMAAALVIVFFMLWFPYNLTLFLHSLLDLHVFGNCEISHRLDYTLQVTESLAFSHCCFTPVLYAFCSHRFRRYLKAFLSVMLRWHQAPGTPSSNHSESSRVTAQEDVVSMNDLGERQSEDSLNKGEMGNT


Target: T1, mouse ACKR2 N-terminally fused with the …
Assay: FRET or BRET; NanoBRET competition binding, concentration-response: increasing chemokine (highest 300 nM) against LIH222-AZ594 (5 nM for human, 10 nM for mouse) on HEK293T cells expressing NanoLuc-ACKR2; 2 h on ice
Details: one partner purified

Binder	pIC50
mouse CXCL11 (ligand, UniProt Q9JHH5 22-100, looked up, CXCL11, mouse, native chemokine; source: bought: Protein Foundry) FLMFKQGRCLCIGPGMKAVKMAEIEKASVIYPSNGCDKVEVIVTMKAHKRQRCLDPRSKQARLIMQAIEKKNFLRRQNM	≤ 7.04
mouse CXCL5 (ligand, The paper prints no limits. The full-length mature chain after the signal peptide was taken for the 'native' chemokine (Protein Foundry); the commercial form could instead be GCP-2(1-78), 41-118, or …) APSSVIAATELRCVCLTVTPKINPKLIANLEVIPAGPQCPTVEVIAKLKNQKEVCLDPEAPVIKKIIQKILGSDKKKAKRNALAVERTASVQ	≤ 8.51
mouse CXCL10 (ligand, UniProt P17515 22-98, looked up, CXCL10, mouse, native chemokine; source: bought: Protein Foundry) IPLARTVRCNCIHIDDGPVRMRAIGKLEIIPASLSCPRVEIIATMKKNDEQRCLNPESKTIKNLMKAFSQKRSKRAP	≤ 8.01
